Biological target: α1antichymotrypsin (ACT) (UniProt P01011)
Sequence (P01011 24-423): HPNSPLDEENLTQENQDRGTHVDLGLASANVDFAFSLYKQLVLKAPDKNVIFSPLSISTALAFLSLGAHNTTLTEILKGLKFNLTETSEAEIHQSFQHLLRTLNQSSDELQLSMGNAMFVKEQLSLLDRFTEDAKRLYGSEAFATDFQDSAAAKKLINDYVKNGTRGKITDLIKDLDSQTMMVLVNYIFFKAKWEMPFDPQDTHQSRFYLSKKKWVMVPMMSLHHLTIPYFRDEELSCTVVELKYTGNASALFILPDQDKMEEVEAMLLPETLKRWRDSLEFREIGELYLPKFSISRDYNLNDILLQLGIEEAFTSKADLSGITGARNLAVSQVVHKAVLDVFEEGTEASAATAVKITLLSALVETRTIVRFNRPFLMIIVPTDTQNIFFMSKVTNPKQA

Substance: prostate-specific antigen (PSA), mature form
- cleavage of ACT (HIC-HPLC peak 1): Peak 1 is inactive ACT which has been cleaved by PSA

— patent publication US6423503
